Experimental data: the supplement of paper PMC10567573

B1: SPDEF (parent)
chain: YPEDSSWAAKAPGASSREEPPEEP
B2: CDC25A (parent)
chain: QLIDPDENKENEAFEFKKPVRPVS

Variants of: B1
Assay: protein stability index of a GFP-peptide fusion (GPS, HEK-293T) (PSI 1-6); higher = more stable
Details: c terminus: a fixed tail appended
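Further: lentivirally expressed fusions sorted by FACS into six bins by GFP to DsRed ratio, PSI derived from sequencing read proportions per bin multiplied by bin number.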

Protein stability index: each site, then its substitutions
E19: Q 3.69, M 4.07, S 4.97, V 4.48, K 3.91, N 4.32, W 3.53, T 4.49, D 3.37, C 3.58, F 3.06, H 3.12
E22: S 2.71, G 2.79, A 4.38, P 3.06, D 3.4, Y 3.78, T 4.31, C 3.49, V 4.23, H 4.06, F 3.43, L 3.92, K 3.88
R17: S 4, V 4.3, P 3.85, C 3.96, M 4.22, H 4.67, N 4.14, T 4.06, Q 4.06, A 3.11, L 3.62, I 4.85, W 4.23, F 4.27
P24: C 4.4, Y 4.17, D 4.17, H 3.42, N 4.54, E 3.48, R 3.86
E18: D 4.86, Y 3.46, R 4.32, H 3.86, V 4.17, M 3.77, T 3.24, S 4.18, W 3.3, N 3.43, Q 3.37, C 2.82, I 4, F 3.05
P20: R 2.98, K 3.89, T 3.8, I 3.82, G 4.43, E 4.2, L 3.11, Q 3.46, V 4.26, N 3.62
P21: N 4.12, Y 4.3, H 4.13, E 4.26, V 3.91, A 3.63, R 4.25, K 3.29, T 3.64, W 3.66, L 4.04, F 3.76, G 4.04
E23: K 2.69, C 4.3, D 4.44, F 3.89, N 3.58, L 3.45, A 4.06, R 3.6, Y 3.65, S 3.1, G 3.9
S16: N 3.53, W 3.71, V 3.78, I 3.86, Q 2.88, L 4.36, F 4.2, Y 3.73, T 2.85, K 4.51, P 3.72, H 3.92, M 4.67

Variants of: B2
Assay: as above
Details: c terminus: a fixed tail appended

Protein stability index of substitutions, site by site:
Q1: F 4.05, P 4.06, H 4.72, R 3.44, I 3.39, T 3.58, V 3.6, D 2.88, A 4.36, L 2.93, Y 2.32, W 2.44, E 4.56, N 3.83, S 4.43, C 3.81, M 3.97
D4: C 3.37, G 3.56, K 3.87, A 3.67, I 3.83, F 4.09, H 4.23, E 3.99, L 3.91
I3: L 3.15, F 3.91, Q 3.95, C 3.92, D 4.64, M 3.75, T 4.12, E 4.74, R 4.75, G 4.58, Y 3.74, V 4.05, A 4.23, K 3.86, N 3.6, H 4.59, P 4.3
L2: C 4.64, M 3.72, A 4.69, E 5.02, I 2.73, H 4.54, T 4.31, V 3.29, Y 4.17, D 4.51, S 4.16, Q 4.41, K 4.29, N 4.58, F 3.35, P 5.03, W 3.43
